{
  "source": "paper PMC10282599",
  "about": "“Al-induced CsUGT84J2 enhances flavonol and auxin accumulation to promote root growth in tea plants” (Horticulture Research, 2023)",
  "assay_in_all_cases": "HPLC of glucoside product",
  "format_in_all_cases": "biochemical, Camellia sinensis",
  "key": {"[1]": {"substrate": "O=C(O)/C=C/c1ccc(O)cc1", "settings": "UDP-glucose as sugar donor; optimum pH 6.5, 40 °C; pH 6.5; 40.0 °C"}, "[2]": {"substrate": "O=C(O)Cc1c[nH]c2ccccc12", "settings": "UDP-glucose as sugar donor; optimum pH 6.5, 30 °C; pH 6.5; 30.0 °C"}, "[3]": {"substrate": "O=c1c(O)c(-c2ccc(O)cc2)oc2cc(O)cc(O)c12", "settings": "UDP-glucose as sugar donor; optimum pH 9.5, 40 °C; pH 9.5; 40.0 °C"}},
  "data": [
    {"protein": "rCsUGT84J2 (TEA000239) (Camellia sinensis) (protein) MAAMEKKEEIHVLMVAFSSQGHINPMLRLAKRLHSKGLHVTLATTEIARHRMLTSSSATTTAVAANSIDGISLAFFSDGLSLDYDRKTNLDHYMDSLGRAGPANLSSIILHHHSHGGRKFSCIVTNPFIPWAADVAAEHGIPCALLWIQPCSLYSIYYRFYNHLNQFPSSANPNMSVELPGLPLLNTEDLPSFVLPSNPFGSFPKLFCGLFQNMQKMKWVLANSFHELESQAIDSMFDIHPVLPIGPLVPPSILGEDQAVDAGVEMWKSEDNCIEWLDQQQPNSVIYVSFGSVVILSPLQMESIATGLKNCNRPFLWVVKKSDYTAKEGEGQLPLGFLEETKGRGLVVQWSPQIKVLMNPAVGCFLTHCGWNSMLETIAAGVPVIAYPQWTDQPTNAKLMAEVLRVGVRLRPNQDGVVTNEEVERRIEDVMCGPEAEEFREKAAELKVAARVAVADGGSSDRNIQLFVDEIIGDSST", "values": [
      {"measurement": "Km", "setting": "[1]", "value": 0.243, "unit": "µM"},
      {"measurement": "Km", "setting": "[2]", "value": 0.522, "unit": "µM"},
      {"measurement": "Km", "setting": "[3]", "value": 0.127, "unit": "µM"}
    ]}
  ]
}
